In article PMC6748660:

Target: full-length mScarlet-tagged tau (2N4R) (human) (UniProt P10636)
Test: TIRF microscopy, condensate enrichment assay

GFP-tagged isolated C-terminus of tau (domain or fragment)
fold enrichment within mScarlet-2N4R condensates over the lattice: 1.2 fold
